Source: article PMC12135372

Columns and labels:
[1] = target: Full-length five-subunit Danio rerio tRNA ligase complex (DDX1, RTCB, FAM98B, CGI99, ASW) (Danio rerio) (UniProt F1R2L8)
[2] = target: Truncated Danio rerio tRNA ligase complex (His6-RTCB, FAM98B, CGI99, ASW 1-83, DDX1 693-740) (Danio rerio) (UniProt Q6NZS4)
[3] = target: T1, Dr-tRNA-LC-TR (DDX1 C-term, RTCB, FAM98B, CGI99, ASW N-term) (Danio rerio) (UniProt F1R2L8+Q6NZS4+A0PJS3+Q7ZUH1); test: MST; settings: 2 mM GTP, 2 mM MnCl2 (buffer B, implied by text); MST: 25 mM Hepes pH 7.5, 150 mM NaCl, 1 mM DTT, with or without 2 mM GTP and 2 mM MnCl2, 20 nM Cy5-tRNA, temperature not stated; crosslinking: 50 mM Tris pH …
T1 sequence 1: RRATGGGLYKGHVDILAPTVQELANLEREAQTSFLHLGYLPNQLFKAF
T1 sequence 2: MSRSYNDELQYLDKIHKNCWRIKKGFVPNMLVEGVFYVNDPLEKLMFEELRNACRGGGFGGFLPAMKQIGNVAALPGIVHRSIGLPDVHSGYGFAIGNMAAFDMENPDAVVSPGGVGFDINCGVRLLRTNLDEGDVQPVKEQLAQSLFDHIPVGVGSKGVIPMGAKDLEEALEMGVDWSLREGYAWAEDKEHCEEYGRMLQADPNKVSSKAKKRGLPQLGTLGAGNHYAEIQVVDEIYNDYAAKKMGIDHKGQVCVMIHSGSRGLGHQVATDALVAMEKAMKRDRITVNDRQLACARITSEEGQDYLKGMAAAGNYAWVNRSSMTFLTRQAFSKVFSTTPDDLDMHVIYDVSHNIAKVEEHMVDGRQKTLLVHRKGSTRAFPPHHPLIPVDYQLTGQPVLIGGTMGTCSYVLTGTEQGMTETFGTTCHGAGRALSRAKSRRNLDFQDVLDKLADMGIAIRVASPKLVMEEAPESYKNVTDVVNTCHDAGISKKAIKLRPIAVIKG
T1 sequence 3: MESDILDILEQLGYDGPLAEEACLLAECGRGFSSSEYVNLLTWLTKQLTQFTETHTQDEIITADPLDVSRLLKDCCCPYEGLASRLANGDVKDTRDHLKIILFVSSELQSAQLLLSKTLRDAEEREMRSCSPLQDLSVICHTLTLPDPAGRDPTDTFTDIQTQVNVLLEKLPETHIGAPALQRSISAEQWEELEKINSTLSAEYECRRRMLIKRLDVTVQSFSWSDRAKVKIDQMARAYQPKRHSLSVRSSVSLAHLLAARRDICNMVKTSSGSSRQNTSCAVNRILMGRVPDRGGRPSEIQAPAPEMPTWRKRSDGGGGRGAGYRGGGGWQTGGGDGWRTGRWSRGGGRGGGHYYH
T1 sequence 4: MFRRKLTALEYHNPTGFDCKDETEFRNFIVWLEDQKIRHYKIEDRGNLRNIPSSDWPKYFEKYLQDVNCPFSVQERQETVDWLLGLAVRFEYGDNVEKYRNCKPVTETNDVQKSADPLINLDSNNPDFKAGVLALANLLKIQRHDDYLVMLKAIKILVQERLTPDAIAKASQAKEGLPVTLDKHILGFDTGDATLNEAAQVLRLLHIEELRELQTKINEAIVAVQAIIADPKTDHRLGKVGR

[4] = target: Dr-tRNA-LC-FL (DDX1, RTCB, FAM98B, CGI99, ASW) (Danio rerio) (UniProt F1R2L8+Q6NZS4+A0PJS3+Q7ZUH1); test: MST; settings: 2 mM GTP, 2 mM MnCl2 (buffer B, implied by text); MST: 25 mM Hepes pH 7.5, 150 mM NaCl, 1 mM DTT, with or without 2 mM GTP and 2 mM MnCl2, 20 nM Cy5-tRNA, temperature not stated; crosslinking: 50 mM Tris pH …

Danio rerio Archease (natural protein)
RNA ligase activity on the short 10-bp RNA duplex substrate, percent of substrate converted to product, time course up to 120 min (0.15 μM complex, 0.6 μM Dr-Archease) [1]: 60% | RNA ligase activity on the short 10-bp RNA duplex substrate, percent of substrate converted to product, time course up to 120 min (0.15 μM complex, 0.6 μM Dr-Archease) [2]: 85%

GGCUCCAGUGGCGCAAUCGGUUAGCGCGCGGUACUUAUAAUGCCGAGGUUGUGAGUUCGAGCCUCACCUGGAGCACCA [tRNAIle]
Kd [3]: 89.4 nM | Kd [4]: 94 nM
